The values below come from paper PMC12714136, “14-3-3θ phosphorylation at S232 reduces its interactome and regulates axonal trafficking” (Disease Models & Mechanisms, 2025).

The target of the assay is T1, nuclear distribution protein nude-like 1 (M17 neuroblastoma cells) (human (endogenous in SK-N-BE(2)-M17), UniProt Q9GZM8 1-345).
T1 construct: nuclear distribution protein nudE-like 1, endogenous in SK-N-BE(2)-M17 cells; also called NDEL1; source: endogenous, SK-N-BE(2)-M17 neuroblastoma cells (fixed cells)
T1 sequence (looked up): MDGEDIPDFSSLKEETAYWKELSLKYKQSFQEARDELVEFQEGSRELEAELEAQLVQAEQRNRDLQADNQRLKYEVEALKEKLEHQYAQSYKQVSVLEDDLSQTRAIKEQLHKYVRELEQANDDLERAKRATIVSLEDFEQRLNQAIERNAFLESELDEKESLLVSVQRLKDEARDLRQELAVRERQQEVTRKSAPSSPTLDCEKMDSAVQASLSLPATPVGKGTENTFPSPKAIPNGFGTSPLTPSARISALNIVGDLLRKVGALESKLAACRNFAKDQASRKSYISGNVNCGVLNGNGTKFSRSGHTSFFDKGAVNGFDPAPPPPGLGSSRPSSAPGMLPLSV
The assay is described as follows: proximity ligation; fixed M17 cells stably expressing V5-tagged 14-3-3θ S232A or S232D; anti-V5 with anti-NDEL1 or anti-BCR antibody; DuoLink probes; objects per area, normalised. As to conditions: partners not purified.

B1: V5-tagged 14-3-3θ S232A (natural protein, UniProt P27348 1-245, looked up)
chain: MEKTELIQKAKLAEQAERYDDMATCMKAVTEQGAELSNEERNLLSVAYKNVVGGRRSAWRVISSIEQKTDTSDKKLQLIKDYREKVESELRSICTTVLELLDKYLIANATNPESKVFYLKMKGDYFRYLAEVACGDDRKQTIDNSQGAYQEAFDISKKEMQPTHPIRLGLALNFSVFYYEILNNPELACTLAKTAFDEAIAELDTLNEDSYKDSTLIMQLLRDNLTLWTSDAAGEECDAAEGAEN
notes: 14-3-3 protein theta with S232A; also called V5-14-3-3θ phospho-mutant S232A; source: SK-N-BE(2)-M17 cells, stably transfected (fixed cells)
As for B1, the “fold PLA signal against S232D” value is around 2 fold.
